{"source": "patent US20220356256A1", "about": "(published 2022)", "binders": {"B1": {"name": "FZD4 (Fc fusion)", "chain": "FGDEEERRCDPIRISMCQNLGYNVTKMPNLVGHELQTDAELQLTTFTPLIQYGCSSQLQFFLCSVYVPMCTEKINIPIGPCGGMCLSVKRRCEPVLKEFGFAWPESLNCSKFPPQNDHNHMCMEGPGDEEVPLPHKTPIQPGEE"}}, "test_in_all_cases": "SPR", "key": {"[1]": {"target": "5057 Fz4 B8"}, "[2]": {"target": "5067 Fz4 C6"}, "[3]": {"target": "5074 Fz4 D1"}, "[4]": {"target": "5039 Fz4 A2"}, "[5]": {"target": "5045 Fz4 A8"}, "[6]": {"target": "5056 Fz4 B7"}, "[7]": {"target": "5073 Fz4 C12"}, "[8]": {"target": "5054 Fz4 B5"}, "[9]": {"target": "5048 Fz4 A11"}, "[10]": {"target": "5075 Fz4 D2"}}, "data": [{"binder": "B1", "values": [{"measurement": "Kd", "setting": "[1]", "result": 2.56, "unit": "nM"}, {"measurement": "Kd", "setting": "[2]", "result": 1.63, "unit": "nM"}, {"measurement": "Kd", "setting": "[3]", "result": 3.61, "unit": "nM"}, {"measurement": "Kd", "setting": "[4]", "result": 2.57, "unit": "nM"}, {"measurement": "Kd", "setting": "[5]", "result": 1.3, "unit": "nM"}, {"measurement": "Kd", "setting": "[6]", "result": 1.14, "unit": "nM"}, {"measurement": "Kd", "setting": "[7]", "result": 0.422, "unit": "nM"}, {"measurement": "Kd", "setting": "[8]", "result": 2.16, "unit": "nM"}, {"measurement": "Kd", "setting": "[9]", "result": 3.71, "unit": "nM"}, {"measurement": "Kd", "setting": "[10]", "result": 1.19, "unit": "nM"}]}]}
